Assay [1] concerns the target T1, human IL-4Rα on TF-1 cells (human, UniProt P24394 26-825).
T1 sequence (looked up): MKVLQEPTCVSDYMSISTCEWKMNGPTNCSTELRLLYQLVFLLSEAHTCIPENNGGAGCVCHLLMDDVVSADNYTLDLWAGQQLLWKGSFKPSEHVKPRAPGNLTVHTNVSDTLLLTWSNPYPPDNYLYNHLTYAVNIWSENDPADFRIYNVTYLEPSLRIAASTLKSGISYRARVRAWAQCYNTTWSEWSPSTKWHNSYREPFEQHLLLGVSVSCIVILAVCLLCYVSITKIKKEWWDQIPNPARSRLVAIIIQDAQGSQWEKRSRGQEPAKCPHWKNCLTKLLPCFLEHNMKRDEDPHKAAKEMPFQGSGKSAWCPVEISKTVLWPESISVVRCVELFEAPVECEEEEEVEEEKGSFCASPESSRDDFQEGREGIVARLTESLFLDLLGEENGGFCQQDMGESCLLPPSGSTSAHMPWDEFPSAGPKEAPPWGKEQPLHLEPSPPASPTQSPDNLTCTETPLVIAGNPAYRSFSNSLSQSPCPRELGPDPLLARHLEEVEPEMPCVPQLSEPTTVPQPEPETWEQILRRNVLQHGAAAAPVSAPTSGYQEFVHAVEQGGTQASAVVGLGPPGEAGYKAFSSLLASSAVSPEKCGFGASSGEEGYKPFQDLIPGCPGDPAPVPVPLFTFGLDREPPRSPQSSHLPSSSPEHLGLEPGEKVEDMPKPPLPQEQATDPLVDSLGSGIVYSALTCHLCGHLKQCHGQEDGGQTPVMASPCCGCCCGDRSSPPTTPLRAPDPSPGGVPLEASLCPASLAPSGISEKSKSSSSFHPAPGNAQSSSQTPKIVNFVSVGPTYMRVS
The experiment in a line: cell-based or functional assay.

The target in assay [2] is T2, cynomolgus IL4Rα/Fc HIS6 (HEK expressed) (cynomolgus monkey).
T2 construct: also called Cyno IL4R; cynomolgus IL-4Rα HIS Fc (in house HEK-EBNA derived); not shown: HIS6 tag
T2 sequence (chain, as listed by the source): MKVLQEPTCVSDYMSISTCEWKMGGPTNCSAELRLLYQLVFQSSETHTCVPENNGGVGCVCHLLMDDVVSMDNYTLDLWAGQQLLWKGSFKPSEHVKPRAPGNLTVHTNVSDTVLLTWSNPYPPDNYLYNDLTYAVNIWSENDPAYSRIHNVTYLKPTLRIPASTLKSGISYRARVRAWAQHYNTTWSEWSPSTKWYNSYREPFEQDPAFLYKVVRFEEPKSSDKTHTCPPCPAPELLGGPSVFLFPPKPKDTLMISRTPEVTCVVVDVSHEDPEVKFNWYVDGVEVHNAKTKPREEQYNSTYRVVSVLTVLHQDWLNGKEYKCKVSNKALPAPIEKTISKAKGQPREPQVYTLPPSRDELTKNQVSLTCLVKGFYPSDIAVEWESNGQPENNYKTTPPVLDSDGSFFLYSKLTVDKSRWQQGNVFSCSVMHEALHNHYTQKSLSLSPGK
The experiment in a line: HTRF receptor-ligand assay, purified scFv against biotinylated cynomolgus IL4. (In general: Time-resolved FRET reads energy transfer from a long-lived donor to a nearby acceptor.)

The target in assay [3] is T3, human IL4Rα/Fc (R and D Systems 604-4R) (human, UniProt P24394 26-231, limits assumed, biotin labelled in the assay of Example 5).
T3 construct: bought protein; also called IL-4Rα/Fc (R&D systems Cat. No. 604-4R-050); not shown: Fc part of the bought fusion
T3 sequence (looked up): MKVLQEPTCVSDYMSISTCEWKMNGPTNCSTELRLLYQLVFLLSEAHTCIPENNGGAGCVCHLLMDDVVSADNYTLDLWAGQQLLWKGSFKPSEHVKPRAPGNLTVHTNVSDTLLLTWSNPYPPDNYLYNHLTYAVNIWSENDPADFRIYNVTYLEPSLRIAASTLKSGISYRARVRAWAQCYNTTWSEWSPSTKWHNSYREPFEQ
As to the kind of experiment: HTRF receptor-ligand assay, purified scFv against biotinylated human IL4.

Where a chain is given by its changes, count along the chain named.

B1: Antibody 8 IgG (antibody, V domains shown)
VH: QVQLVQSGAEVKKPGASVKVSCKASGYAFTSYYMHWARQAPGQGLEWMGIINPSGGSTSYAQKFQGRVTMTRDTSTSTVYMELSSLRSEDTAVYYCARGKWWWQYWGKGTLVTVSS
VL: QSVLTQPPSVSAAPGQKVTISCSGGSSNIGNSYVSWYQQLPGTAPKLLIYDNNKRPSGIPDRFSGSKSGTSATLAITGLQTGDEADYYCGTWDTSTTYHPIFGTGTKLTVL
For the molecule B1, in assay [1], the “IC50 (pM), IL-4 induced TF-1 cell proliferation” value was determined as 7.9 pM and the “IC50 (pM), IL-13 induced TF-1 cell proliferation” value was found to be 22.4 pM.

B2: Antibody 16 IgG (antibody, V domains shown)
VH: B1 VH with W103L, Q104Y, Y105N
VL: B1 VL
With B2, in assay [1], the “IC50 (pM), IL-4 induced TF-1 cell proliferation” value is 6.2 pM and the “IC50 (pM), IL-13 induced TF-1 cell proliferation” value was determined as 19.5 pM.

B3: Antibody 14 IgG (antibody, V domains shown)
VH: B1 VH with W103L, Q104Y, Y105N
VL: B1 VL with T96P, T97P, Y98T, H99K, I101L
As for B3, in assay [1], the “IC50 (pM), IL-4 induced TF-1 cell proliferation” value is 3.8 pM and the “IC50 (pM), IL-13 induced TF-1 cell proliferation” value is 27.2 pM.

B4: Antibody 11 IgG (antibody, V domains shown)
VH: B1 VH with W103F, Q104Y, Y105D
VL: B1 VL with T96P, T97S, Y98M, H99I, I101L
For B4, in assay [1], the “IC50 (pM), IL-4 induced TF-1 cell proliferation” value turned out to be 18.8 pM and the “IC50 (pM), IL-13 induced TF-1 cell proliferation” value is 32.7 pM.

B5: Antibody 10 IgG (antibody, V domains shown)
VH: B1 VH with W103L, Q104Y, Y105D
VL: B1 VL with T97V, Y98L, H99T
Take B5: in assay [1], the “IC50 (pM), IL-4 induced TF-1 cell proliferation” value amounted to 10.1 pM and the “IC50 (pM), IL-13 induced TF-1 cell proliferation” value came out at 25.4 pM.

B6: Antibody 12 IgG (antibody, V domains shown)
VH: B1 VH with W103F, Q104Y, Y105D
VL: B1 VL with Y98M, H99Y, I101L
B6: in assay [1], the “IC50 (pM), IL-4 induced TF-1 cell proliferation” value was 18.2 pM and the “IC50 (pM), IL-13 induced TF-1 cell proliferation” value was 40.7 pM.

B7: Antibody 15 IgG (antibody, V domains shown)
VH: B1 VH with W103L, Q104Y, Y105N
VL: B1 VL with T97H, Y98R, I101L
For the molecule B7, in assay [1], the “IC50 (pM), IL-4 induced TF-1 cell proliferation” value was 2.8 pM and the “IC50 (pM), IL-13 induced TF-1 cell proliferation” value stood at 17.8 pM.

B8: Antibody 37 scFv (scFv, V domains shown)
VH: B1 VH with S54R, T69A, S88P, W101Y, W103M, Q104Y, Y105D
VL: B1 VL with S26G, N28S, I59V, T96P, T97V, Y98W, H99E, P100W, I101P
notes: tested as purified scFv
For B8, the Ki in assay [2] turned out to be 0.8 nM; in assay [3] it was 0.04 nM.

B9: Antibody 42 scFv (scFv, V domains shown)
VH: B1 VH with M48V, E89G, W101Y, W103M, Q104Y, Y105D
VL: B1 VL with S2A, Q39R, T43A, T97G, Y98W, H99E, P100W, I101P
notes: tested as purified scFv
Consider B9, for which the Ki is 2.5 nM in assay [2] and 0.027 nM in assay [3].

B10: Antibody 35 scFv (scFv, V domains shown)
VH: B1 VH with W101Y, W103M, Q104Y, Y105D
VL: B1 VL with T96P, T97V, Y98W, H99E, P100W, I101P
notes: tested as purified scFv
B10: the inhibitory constant (Ki) in assay [2] was 2.6 nM; in assay [3] it was 0.071 nM.

B11: Antibody 40 scFv (scFv, V domains shown)
VH: B1 VH with W101Y, W103M, Q104Y, Y105D
VL: B1 VL with T94S, T97V, Y98W, H99E, P100W, I101P
notes: tested as purified scFv
For the molecule B11, the Ki was found to be 6.5 nM in assay [2] and 0.031 nM in assay [3].

B12: Antibody 37GL scFv (scFv, V domains shown)
VH: B1 VH with A37V, S54R, W101Y, W103M, Q104Y, Y105D
VL: B1 VL with S26G, N28S, A75G, T96P, T97V, Y98W, H99E, P100W, I101P
notes: tested as purified scFv; also called NCIMB 41600
On to B12, for which the results for the Ki in assay [2] and in assay [3] were 0.7 nM and 0.061 nM, respectively.

B13: Antibody 38 scFv (scFv, V domains shown)
VH: B1 VH with T58A, W101Y, W103M, Q104Y, Y105D
VL: B1 VL with Y88F, T97V, Y98W, H99E, P100W, I101P
notes: tested as purified scFv
As to B13, the results for the Ki in assay [2] and in assay [3] were 2.7 nM and 0.066 nM, respectively.

B14: Antibody 41 scFv (scFv, V domains shown)
VH: B1 VH with K12R, S88P, W101Y, W103M, Q104Y, Y105D, S116G
VL: B1 VL with S27T, Q39R, S57P, T97V, Y98W, H99E, P100W, I101P
notes: tested as purified scFv
For B14, the Ki in assay [2] stood at 2.7 nM; in assay [3], 0.053 nM.

In general, Ki refers to the equilibrium dissociation constant of an inhibitor or competing ligand from its target.

The values are drawn from patent publication US20180057596A1 (AstraZeneca / MedImmune, published 2018).
